From patent publication US20220213157A1 (PEKING UNIVERSITY, published 2022)

Key:
[1] = target: human CSQ2 D348C mutant, without the signal peptide (human) (UniProt O14958); experiment: cell-based or functional assay
[2] = target: the molecule itself; experiment: crystal structure of rat CSQ2 with 200 mM Ca2+, homodimers in the asymmetric unit
Protocol: Human CSQ2 crystals were obtained according to a hanging drop vapor diffusion method (24-well hanging drop plate, XtalQuest) at 16° C. using 1.5 μL protein solution (25 mg/ml) and 1.5 μL reservoir solution containing 100 mM Na cacodylate (pH 6.0), 25% (vol/vol) 2-methyl-2,4-pentanedio (MPD) and 40 mM calcium lactate. Small needle-like crystals appeared within two days. After several rounds of stick seeding, the crystals had grown to approximately 50×50×400 μm. The Se-Met CSQ2 crystals were obtained using the same process. Diffraction data of native and Se-Met crystals were collected and were prcessed using CCP4 program suit (see, e.g., Winn, M. D. et al. Overview of the CCP4 suite and current developments. Acta. Crystallogr. D. Biol. Crystallogr. 67, 235-242 (2011). doi: 10.1107/S0907444910045749). The initial phase was determined by MR-SAD using PHENIX (see, e.g., P. D. Adams et al., PHENIX: a comprehensive Python-based system for macromolecular structure solution. Acta. Crystallogr. D. Biol. Crystallogr. 66, 213-221 (2010). doi: 10.1107/S0907444909052925). […] The phase was determined by molecular replacement using human CSQ2 structure as a searching model. […]
The crystal structures of the human CSQ2 protein and the rat CSQ2 protein were determined to be 2.2 Å and 2.8 Å with a high concentration of Ca²⁺ in the reservoir solution (40 mM Ca²⁺ for human CSQ2, 200 mM Ca²⁺ for rat CSQ2). […]

Molecule	current of the CSQ2-immobilized single-molecule junction at 25 mV bias (1 mM Ca2+, 1.2 mM Mg2+) [1]	binding result [2]
human CSQ2 D348C mutant, without the signal peptide (from UniProt O14958 20-399)	15 pA	–
rat CSQ2 (calsequestrin 2), amino acids 20-413, without the signal peptide (other, Entered as the monomer) EEGLNFPTYDGKDRVVSLSEKNLKQVLKRYDLLCLYYHEPVSSDKVAQKQFQLKEIVLELVAQVLEHKNIGFVMVDSRKEAKLAKRLGFSEEGSLYVLKGGRTIEFDGEFAADVLVEFLLDLIEDPVEIVNNKLEVQAFERIEDQIKLLGFFKNEDSEYYKAFQEAAEHFQPYIKFFATFDKGVAKKLSLKMNEVGFYEPFMDEPSVIPNKPYTEEELVEFVKEHQRPTLRPLRPEDMFETWEDDLNGIHIVAFAEKSDPDGYEFLEILKQVARDNTDNPDLSILWIDPDDFPLLVAYWEKTFKIDLFKPQIGVVNVTDADSVWMEIPDDDDLPTAEELEDWIEDVLSGKINTEDDDNEDEDDDGDNDNDDDDDDDDNDDEDNDDDDDDDDDDE	–	binds
